In test [1] the target is HIV-1 integrase F185K (pNY strain) (human immunodeficiency virus type-1 (pNY strain)). Briefly: SEC. A general note: Size exclusion chromatography separates by hydrodynamic size, large species first.
Test [2] has the same target. Briefly: SEC. The source holds these as a separate data set.
Test [3] deals with wt HIV-1 integrase (pNY strain) (human immunodeficiency virus type-1 (pNY strain)). The test is described as follows: cross-linking.
The target is the same in test [4]. The test is described as follows: cross-linking. The source holds these as a separate data set.
Test [5] has the same target. The test is described as follows: SEC.
For test [6], the target named is wt Rous sarcoma virus integrase (286 residues) (Rous sarcoma virus). The test is described as follows: SEC.
For test [7] the target is unchanged. The test is described as follows: SEC. The source holds these as a separate data set.

Three substances from article PMC3212032 can be followed below.

Several values for one entry are separate records, joined by “and”; a condition that tells them apart may be missing. Equal values may be shown once. Read-outs that look alike come from different tables or passages of the source.

By stoichiometry N is commonly meant the number of molecules, sites or subunits per partner or assembly. Substance “HIV-1 integrase F185K (pNY strain) (enzyme)” yielded a percent converted to tetramers in test [1] of 65%. The stoichiometry N in test [1] was 2 and 4; in test [2], 2.
As to “wt HIV-1 integrase (pNY strain) (enzyme)”, the stoichiometry N in test [3] was 2; in test [4] it was 2 and 3 and 4; in test [5], 4.
On to “wt Rous sarcoma virus integrase (286 residues) (enzyme)”, for which the stoichiometry N was 2 and 4 in test [6]; 2 and 4 in test [7].
